Experimental data: patent US20170051072A1 (UNITED STATES OF AMERICA AS REPRESENTED BY THE SECRETARY …, published 2017)
“And” between values parts separate entries of the source, which are not always exact repeats. Identical values can stand only once.

B1: IgG VH 000/15437 + VL 001/15457 (antibody, V domains shown)
VH: not shown
VL: DIQMTQSPSSLSASVGDRVTITCSASSSVSYMHWYQQKSGKAPKLLIYDTSKLASGVPSRFSGSGSGTDFTLTISSLQPEDFATYYCQQWSKHPLTFGQGTKLEIK
B2: IgG VH 001/15438 + VL 000/15456 (antibody, V domains shown)
VH: QVQLVQSGAEVKKPGASVKVSCKASGYSFTGYTMNWVRQAPGQGLEWMGLITPYNGASSYNQKFRGKATMTVDTSTSTVYMELSSLRSEDTAVYYCARGGYDGRGFDYWGQGTLVTVSS
VL: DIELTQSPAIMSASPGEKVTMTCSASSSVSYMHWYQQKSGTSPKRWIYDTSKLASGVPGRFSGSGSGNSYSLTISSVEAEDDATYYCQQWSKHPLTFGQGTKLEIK
B3: IgG VH 001/15438 + VL 001/15457 (antibody, V domains shown)
VH: B2 VH
VL: B1 VL
notes: also called VL001/VH001; VL01/VH01

Key:
[1] = target: T1, human mesothelin with His-tag (R&D Systems) (human, UniProt Q13421 296-580); experiment: ELISA, IgG on captured His-huMesothelin (R&D)
T1 construct: also called huMesothelin; MSLN; not shown: His-tag
T1 sequence (Q13421 other isoform, or with tags, fused parts or gaps limits assumed): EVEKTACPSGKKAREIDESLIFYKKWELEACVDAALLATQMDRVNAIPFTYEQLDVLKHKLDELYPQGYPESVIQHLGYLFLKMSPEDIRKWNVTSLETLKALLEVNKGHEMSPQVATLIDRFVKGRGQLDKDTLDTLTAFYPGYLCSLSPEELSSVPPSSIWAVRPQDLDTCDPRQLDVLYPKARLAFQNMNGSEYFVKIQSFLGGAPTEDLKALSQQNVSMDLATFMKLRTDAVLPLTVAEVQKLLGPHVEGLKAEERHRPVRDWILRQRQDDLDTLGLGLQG

[2] = target: T2, human mesothelin with His-tag (in house) (human, UniProt Q13421 296-598, limits assumed); experiment: ELISA, IgG on captured His-huMesothelin (in house)
T2 construct: also called huMesothelin; MSLN; not shown: His-tag
T2 sequence (Q13421 other isoform, or with tags, fused parts or gaps limits assumed): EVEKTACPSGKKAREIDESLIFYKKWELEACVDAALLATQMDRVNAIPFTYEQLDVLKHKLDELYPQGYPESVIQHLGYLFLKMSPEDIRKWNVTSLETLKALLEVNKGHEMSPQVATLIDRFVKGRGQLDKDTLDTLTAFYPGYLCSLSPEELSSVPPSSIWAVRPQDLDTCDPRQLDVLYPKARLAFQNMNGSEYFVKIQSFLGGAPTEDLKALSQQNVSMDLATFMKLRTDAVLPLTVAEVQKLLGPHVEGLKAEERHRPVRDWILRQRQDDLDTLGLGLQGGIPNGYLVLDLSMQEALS

human mesothelin (SPR) = target: T3, human mesothelin (SPR) (human, UniProt Q13421 296-598, limits assumed); experiment: SPR, IgG captured on Protein A, 50 nM human mesothelin, 25 C, 1:1 fit
T3 construct: also called human MSLN

| Binder | EC50 [1] [µg/mL] | EC50 [2] [µg/mL] | Kd (human mesothelin (SPR)) |
| --- | --- | --- | --- |
| B1 | 0.0182 | 0.0178 | – |
| B2 | 0.0228 | 0.032 | – |
| B3 | 0.0155 | 0.0203 | 263 pM and 260 pM |
